Assay results: paper PMC9432830 (Science Advances, 2022)
Where two headings read alike, the source gives them in different places.

Tests used:
[1] = biological target: ctMic60sol V455D/F461D (Chaetomium thermophilum); assay: ITC
[2] = biological target: ctMic60sol L676D (Chaetomium thermophilum); assay: native gel or EMSA
[3] = biological target: Chaetomium thermophilum Mic60 excluding the TM region (residues 208 to 691) (Chaetomium thermophilum); assay: native gel or EMSA
[4] = biological target: Chaetomium thermophilum Mic60 excluding the TM region (residues 208 to 691) (Chaetomium thermophilum); assay: native gel or EMSA; remark: listed apart in the source
[5] = biological target: ctMic60sol R525C (Chaetomium thermophilum); assay: native gel or EMSA
crystal structure = biological target: the molecule itself; assay: crystal structure

In the case of “Chaetomium thermophilum Mic19 (natural protein)”, the fold reduction of affinity against ctMic60sol [1] is reported as 30 fold.

ctMic60sol L676D (domain or fragment) showed a stoichiometry N [2] of 2.

Work on “Chaetomium thermophilum Mic60 excluding the TM region (residues 208 to 691) (domain or fragment)” yielded a stoichiometry N [3] of 2 and a stoichiometry N [4] of 4.

ctMic60sol R525C (domain or fragment) showed a stoichiometry N [5] of 4.

B1: Mic60 coiled-coil domain from Lachancea thermotolerans (amino acids 207 to 382) (domain or fragment, UniProt C5E325 207-382, looked up)
chain: NEDIRTNVAESVAVQYGQASKDLHESFEIRAKSREVELTQQFLNEFNAFKAQLEKHSSEELASALKANEQALLAKQSNEVALLSMKQVEEFTKILSEKLDQERQGRLSKLEALNGSVQELAEAVDQVDTLVMKSEVLSQLSLLTTLLKNKLHAGDESSVKIDSELARLKTLCDILP
B1 was tested, and the “stoichiometry N” value (crystal structure) was 4.
